Substitutions are numbered along the chain they refer to.
Assays:
[1] = molecular target: T1, human FcRH5c (full length human FcRH5) (human, UniProt Q96RD9 16-977); assay: FACS, EJM cells transfected with human FcRH5, anti-mouse Alexa-647; negative control
T1 construct: Used on transfected SVT2, 293, EJM and OPM2 cells and endogenously on MOLP-2 cells and CD19+ B cells; also called IRTA2c; huFcRH5
T1 sequence: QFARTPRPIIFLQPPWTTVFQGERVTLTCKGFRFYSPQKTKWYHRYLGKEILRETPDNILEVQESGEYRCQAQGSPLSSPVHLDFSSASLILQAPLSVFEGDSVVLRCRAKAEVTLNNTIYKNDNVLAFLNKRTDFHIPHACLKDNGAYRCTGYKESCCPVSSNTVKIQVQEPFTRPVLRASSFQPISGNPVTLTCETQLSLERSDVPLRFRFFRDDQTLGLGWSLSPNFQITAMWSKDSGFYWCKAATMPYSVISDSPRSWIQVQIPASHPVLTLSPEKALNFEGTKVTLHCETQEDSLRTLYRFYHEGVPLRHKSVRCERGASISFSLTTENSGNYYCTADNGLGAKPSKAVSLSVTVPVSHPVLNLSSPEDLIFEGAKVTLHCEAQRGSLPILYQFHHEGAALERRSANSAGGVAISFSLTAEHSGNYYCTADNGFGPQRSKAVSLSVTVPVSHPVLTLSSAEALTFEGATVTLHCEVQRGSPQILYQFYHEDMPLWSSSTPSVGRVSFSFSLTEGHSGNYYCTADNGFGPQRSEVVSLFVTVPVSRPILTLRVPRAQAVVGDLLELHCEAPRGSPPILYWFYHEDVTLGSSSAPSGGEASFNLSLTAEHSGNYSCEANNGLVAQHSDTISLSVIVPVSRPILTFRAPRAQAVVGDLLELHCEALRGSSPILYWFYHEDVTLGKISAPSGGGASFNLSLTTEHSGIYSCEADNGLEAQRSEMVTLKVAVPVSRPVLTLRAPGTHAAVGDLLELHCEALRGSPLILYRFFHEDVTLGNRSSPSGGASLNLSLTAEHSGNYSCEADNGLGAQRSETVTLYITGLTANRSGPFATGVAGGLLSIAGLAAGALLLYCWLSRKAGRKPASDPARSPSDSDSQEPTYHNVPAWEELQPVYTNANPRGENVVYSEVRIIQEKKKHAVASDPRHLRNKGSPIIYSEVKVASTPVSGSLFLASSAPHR

[2] = molecular target: T1, human FcRH5c (full length human FcRH5); assay: FACS, OPM2 cells transfected with human FcRH5, anti-mouse Alexa-647; negative control
[3] = molecular target: T2, soluble FcRH5a isoform with C-terminal HIS-expression tag (human, UniProt Q96RD9-3 16-759); assay: ELISA, His-tagged soluble FcRH5a captured by anti-His, anti-mouse HRP, OD 650
T2 construct: mature; also called IRTA2a
T2 sequence (looked up): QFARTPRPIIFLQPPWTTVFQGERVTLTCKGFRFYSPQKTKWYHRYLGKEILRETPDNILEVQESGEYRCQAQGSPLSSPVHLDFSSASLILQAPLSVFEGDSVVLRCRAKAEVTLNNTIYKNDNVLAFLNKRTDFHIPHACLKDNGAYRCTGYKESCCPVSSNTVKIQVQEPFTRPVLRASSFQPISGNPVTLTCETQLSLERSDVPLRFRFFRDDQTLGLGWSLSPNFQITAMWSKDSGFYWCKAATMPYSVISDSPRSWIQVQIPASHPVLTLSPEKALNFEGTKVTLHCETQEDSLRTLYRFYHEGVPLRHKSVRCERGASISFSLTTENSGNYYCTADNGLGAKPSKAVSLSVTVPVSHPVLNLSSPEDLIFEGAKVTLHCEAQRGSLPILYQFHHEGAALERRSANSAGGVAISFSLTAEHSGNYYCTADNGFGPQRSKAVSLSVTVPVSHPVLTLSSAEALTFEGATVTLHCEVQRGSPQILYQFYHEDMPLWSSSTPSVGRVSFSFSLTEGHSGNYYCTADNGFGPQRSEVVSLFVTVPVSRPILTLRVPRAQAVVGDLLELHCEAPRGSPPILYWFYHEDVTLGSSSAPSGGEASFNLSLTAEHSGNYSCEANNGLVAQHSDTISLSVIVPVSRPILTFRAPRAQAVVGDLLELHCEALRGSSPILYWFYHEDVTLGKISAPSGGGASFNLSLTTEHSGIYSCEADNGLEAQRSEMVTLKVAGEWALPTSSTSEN
Description: For this, 293 cells were transfected to express the soluble isoform with C-terminal HIS-expression tag. Expression of FcRH5a protein was confirmed with Western blot analysis using anti-HIS antibody. A 65 kD band was detected in conditioned media from FcRH5a but not vector transfected cells (not shown). For the ELISA, plates were coated with anti-HIS capture antibody and incubated 1 hour with 1:10 diluted conditioned media including the HIS-tagged soluble FcRH5a isoform. The E11 monoclonal antibodies were used for detection in 1-0.001 ug/ml concentration, incubated for 1 hour followed by incubation with goat anti-mouse HRP antibody and finally with TMB-substrate.

[4] = molecular target: T3, FcRH3 endogenously expressed on human NK cells (CD56+ cells of PBMC) (human, UniProt Q96P31 18-734); assay: FACS, CD56+ NK cells of human PBMC, anti-mouse APC
T3 construct: whole, on cells; FcRH1 was also detected on CD56+ cells; also called endogenously expressed FcRH3
T3 sequence (looked up): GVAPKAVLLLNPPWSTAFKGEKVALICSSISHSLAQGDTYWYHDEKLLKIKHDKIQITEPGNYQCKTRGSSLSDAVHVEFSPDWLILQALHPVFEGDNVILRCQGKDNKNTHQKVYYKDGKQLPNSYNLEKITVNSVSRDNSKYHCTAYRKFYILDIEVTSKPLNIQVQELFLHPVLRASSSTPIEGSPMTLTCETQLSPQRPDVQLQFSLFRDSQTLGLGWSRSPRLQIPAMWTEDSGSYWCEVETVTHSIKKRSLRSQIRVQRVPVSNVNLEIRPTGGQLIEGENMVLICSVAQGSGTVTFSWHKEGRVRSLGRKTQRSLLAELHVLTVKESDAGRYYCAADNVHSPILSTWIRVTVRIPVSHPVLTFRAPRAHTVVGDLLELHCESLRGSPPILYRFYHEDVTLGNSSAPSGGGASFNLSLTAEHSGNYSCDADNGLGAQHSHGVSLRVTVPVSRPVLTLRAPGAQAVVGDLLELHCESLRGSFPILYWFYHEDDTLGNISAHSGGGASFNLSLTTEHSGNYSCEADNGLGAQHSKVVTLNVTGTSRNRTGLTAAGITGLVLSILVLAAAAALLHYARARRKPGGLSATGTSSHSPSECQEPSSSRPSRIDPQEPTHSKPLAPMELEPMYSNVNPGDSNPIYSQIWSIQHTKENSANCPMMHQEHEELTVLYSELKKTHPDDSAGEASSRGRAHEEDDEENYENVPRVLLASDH
Description: (§1) To test binding to endogenously FcRH5 expressing cancer cells or FcRH5 transfected cancer cells, cells were lifted using EDTA/PBS. 1×10⁵ cells were suspended in 100 ul and incubated […] with primary antibodies (1 volume of non-IgG quantitated subclone supernatant, 4 ug/ml IgG quantified subclone supernatant or […] purified monoclonal antibodies). Cells were washed twice with FACS buffer (PBS 1% BSA 2 mM EDTA) and incubated with 1:1000 dilution of goat anti-mouse secondary labeled with PE or 1:100 of goat anti-mouse APC. Cells were washed twice with FACS buffer and Flow cytometry analysis was done on a FACSCalibur. Direct […] of antibodies was done according to manufacturer's protocol (Invitrogen), when indicated. To analyze binding to NK or B cells, 1 million human PBMC were incubated with 4 ug/ml IgG quantified subclone supernatants for 60 min, washed and incubated with 1:100 dilution of goat anti-mouse secondary labeled with APC. Cells were then washed again twice and stained using anti-CD56 (PE; BD Biosciences #555516) and anti-CD19 (PE; BD Biosciences #340364) prior flow cytometry and analysis of binding to human CD56+ and CD19+ cells.
Since the overall signal in the FcRH3-expressing SVT2 cells was low, further testing was done using PBMCs from healthy donors. […]

[5] = molecular target: T1, human FcRH5c (full length human FcRH5); assay: FACS, APC-labelled antibodies on SVT2 cells with full-length human FcRH5
[6] = molecular target: T1, human FcRH5c (full length human FcRH5); assay: FACS, MOLP2 cells (endogenous FcRH5), 4 ug/ml; legend printed under FIG. 3E
Description: as §1

[7] = molecular target: T1, human FcRH5c (full length human FcRH5); assay: FACS, MOLP2 cells (endogenous FcRH5), 4 ug/ml
Description: as §1

[8] = molecular target: T1, human FcRH5c (full length human FcRH5); assay: FACS, 293 cells with wild type FcRH5c, supernatants 2.5 ug/ml, anti-mouse PE
Description: Two separate tests were designed to address dependency of binding on the presence of membrane proximal Ig-domain 9 (E11). First a truncated human FcRH5c mutant was generated that lacks Ig-domains 6-9 (amino acids 464-850 of SEQ ID NO:1) including the expected binding site for the antibodies derived from E11 immunization. This construct with N-terminal gD-tag was expressed in 293 cells and subjected to 2.5 ug/ml subclone supernatants followed by PE labeled goat anti-mouse secondary antibody (1:1000 dilution). None of the tested subclones bound to 293 cells that express the truncated human FcRH5c (FIG. 4A). In contrast binding was detected to 293 cells that express wild type human FcRH5c. Binding of gD or non-isoform selective antibody clone (10A8) was not altered by the mutation.

## mIgG (antibody)
[1]
  Mean:FL4-H: 10.3
[2]
  Mean:FL4-H: 6.43

B1: 1G7.2 (antibody, IgG1, V domains shown)
VH: EVQLQESGPGLVQPSQSLSITCTVSGFSLTRFGVHWVRQSPGKGLEWLGVIWRGGSTDYNAAFMSRLTITKDNSKSQVFFKLNSLKVDDTAIYYCSNHYYGSSDYALDNWGQGTSVTVSSASTKGPSVFPLAP
VL: DIVMTQSHKIMSTSVGDRVSITCKASQDVSNIVVWFQQKPGQSPNLLIYSASYRYTGVPDRFTGSGSGTDFTFTISSVQAEDLAVYYCQQHYSSPYTFGGGTKLEIKRTVAA
notes: Parent 1G7, subclone 1G7.2 and purified 1G7.2.mIgG1 treated as one antibody; also called 1G7.2.mIgG1
[3]
  binding result: no binding
[4]
  binding result: no binding (tested: 4 ug/ml)
[5]
  binding result: binds

B2: 5F1.1.5 (antibody, IgG2a, V domains shown)
VH: QVQLQQSGADLVRPGTSVKVSCKASGYAFTNYLIEWVKQRPGQGLEWIGVINPGSGGTNYNEKFKGKATLTADKSSSTAYMQLSSLTSDDSAVYFCARTRNYGYVIDYWGQGTTLTVSSASTKGPSVFPLAP
VL: QAVVTQESALTTSPGETVTLTCRSSTGTVTTSNFANWVQEKPDHLFTGLIGGTSNRAPGVPARFSGSLIGDKAALTITGAQTEDEAIYFCVLWCSNLWVFGGGTKLTVLGQPKAA
notes: parent 5F1 and subclone 5F1.1 treated as the same antibody; also called 5F1.1.mIgG2a
[6]
  binding result: binds

B3: 3G7.1.5 (antibody, IgG2a, V domains shown)
VH: EVQLQQSGPELVKPGASVKMSCKASGYTFTDYYMKWVRQNHGKRLEWIGDINPYNGDTFYNQKFKDKATLTVDKSSSTAYMQFNSLTSEDSAVYYCARGLYFFHYWGQGTTLTVSSASTKGPSVFPLAP
VL: DIVLIQSPATLSVTLGGSVSLSCRASQSISNNLHWYQQKSHESPRLLIKFASQSISGIPSRFRGSGSGTDFTLTINSVETEDFGIYFCQQSNNWPQYTFGGGTKLELKRTVAA
notes: parent 3G7 and subclone 3G7.1 treated as the same antibody; also called 3G7.1.mIgG2a
[7]
  binding result: binds

B4: 2H7.3 (antibody, IgG2b, V domains shown)
VH: EVQLQQSGPELWKPGASVKMSCKASGYTFTDYYMKWVKQTHGKSLEWIGDINPNNGETFYSQKFKGKATLTVDKSSTTAYMQLNSLTSEDSAVYYCARGLYRFDYWGQGTTLTVSSASTKGPSVFPLAP
VL: EIVLTQSPATLSVTPGDSVSLSCRASQNIRNNLHWYQQKSHESPRLLIKFTSQSISGIPSRFTGSGSGTDFTLSINSVETEDFGMYFCQQSNNWPQYTFGGGTKLEIKRTVAA
notes: Parent 2H7, subclone 2H7.3 and purified antibody treated as one; also called 2H7.3.mIgG2b
[3]
  binding result: binds
[8]
  binding result: binds

B5: 5A10.1.3 (antibody, IgG2b, V domains shown)
VH: EVQLQQSGPELWKPGASVKMSCKASGYTFTDYYMKWVKQSHGKSLEWIGDINPNNGETFYNQKFKGKATLTVDKSTSTAYMELNSLTTEDSAVYYCARGLYRFDYWGQGTTLTVSSAASTKGPSVFPLAP
VL: B4 VL with E1D, T10N, T14I, H41Q, T51A, I55M, I58T, S74T, S77T
notes: parent 5A10 and subclone 5A10.1 treated as the same antibody; also called 5A10.1.mIgG2b
[3]
  EC50 (read off the curve): ~0.02 ng/mL
